PMC9950535, “Divalent metal cofactors differentially modulate RadA-mediated strand invasion and exchange in Saccharolobus solfataricus” (Bioscience Reports, 2023)

Key:
SsoRadA [1] = molecular target: T1, SsoRadA (Saccharolobus solfataricus, UniProt Q55075); test: TLC ATPase assay, [γ-32P]ATP; type: biochemical
T1 construct: gene radA
T1 sequence (Q55075 1-324): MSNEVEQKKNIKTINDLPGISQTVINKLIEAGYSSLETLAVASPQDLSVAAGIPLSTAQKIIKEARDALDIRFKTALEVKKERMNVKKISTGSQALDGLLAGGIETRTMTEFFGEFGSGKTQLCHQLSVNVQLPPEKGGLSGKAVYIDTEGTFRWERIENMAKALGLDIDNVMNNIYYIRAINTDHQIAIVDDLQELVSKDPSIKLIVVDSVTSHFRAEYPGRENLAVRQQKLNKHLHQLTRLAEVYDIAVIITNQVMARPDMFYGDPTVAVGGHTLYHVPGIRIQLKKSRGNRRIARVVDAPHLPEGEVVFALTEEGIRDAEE

SsoRadA [2] = molecular target: T1, SsoRadA; test: filter binding
[3] = substrate: Nc1ncnc2c1ncn2[C@@H]1O[C@H](COP(=O)(O)OP(=O)(O)OP(=O)(O)O)[C@@H](O)[C@H]1O; test: TLC ATPase assay, initial rates; type: biochemical, Saccharolobus solfataricus; conditions: 10 mM Mg2+, 20 μM (nucleotides) φX174 ssDNA, 0.5 μM SsoRadA, 25 mM Tris acetate pH 7.5, 65°C
SsoRadA [4] = molecular target: T2, SsoRadA (Saccharolobus solfataricus, UniProt Q55075 1-324); test: filter binding; 10 mM Mn2+, 3 uM ATP; Filter binding: 40 mM HEPES pH 7.0, 50 mM KCl, 10 mM CaCl2, MgCl2 or MnCl2, 20 pmol SsoRadA, 3 uM ATP where included, ssDNA varied; temperature not stated; conditions: protein: recombinant; single strand
T2 sequence: T1 sequence (Q55075 1-324)

SsoRadA [5] = molecular target: T2, SsoRadA; test: filter binding; 10 mM Mn2+, no ATP; Filter binding: 40 mM HEPES pH 7.0, 50 mM KCl, 10 mM CaCl2, MgCl2 or MnCl2, 20 pmol SsoRadA, 3 uM ATP where included, ssDNA varied; temperature not stated; conditions: protein: recombinant; single strand
SsoRadA [6] = molecular target: T2, SsoRadA; test: filter binding; 10 mM Mg2+, 3 uM ATP; Filter binding: 40 mM HEPES pH 7.0, 50 mM KCl, 10 mM CaCl2, MgCl2 or MnCl2, 20 pmol SsoRadA, 3 uM ATP where included, ssDNA varied; temperature not stated; conditions: protein: recombinant; single strand

How did the IC50 (SsoRadA [1]) turn out when Nc1ncnc2c1ncn2[C@@H]1O[C@H](CO[P@](=O)(O)O[P@](=O)(O)O[P@@](=O)(O)S)[C@@H](O)[C@H]1O [ATPγS] was run?
The IC50 was 87800 nM.

How did the IC50 (SsoRadA [1]) turn out when Nc1ncnc2c1ncn2[C@@H]1O[C@H](COP(=O)(O)OP(=O)(O)O)[C@@H](O)[C@H]1O [ADP] was run?
The IC50 was 112000 nM.

Which Kd (SsoRadA [2]) does the source give for Nc1ncnc2c1ncn2[C@@H]1O[C@H](COP(=O)(O)OP(=O)(O)OP(=O)(O)O)[C@@H](O)[C@H]1O [ATP] here?
Its Kd is 1130 ± 440 nM.

B1: SsoRadA (Saccharolobus solfataricus P2) (protein)
chain: T1 sequence (Q55075 1-324)
Which results are given for B1?
Km [3]: 2.3 ± 0.47 µM; kcat [3]: 0.0283 ± 0.0015 s⁻¹

B2: 63-mer oligonucleotide (ssDNA)
DNA: ACAGCACCAATGAAATCTATTAAGCTCCTCATCGTCCGCAAAAATATCGTCACCTCAAAAGGA
Which Kd (SsoRadA [4]) does the source give for B2 here?
Its Kd is 23.1 ± 14.4 nM.

And the Kd (SsoRadA [5])?
The Kd was 82.4 ± 13.2 nM.

What about the Kd (SsoRadA [6]) of the same molecule?
The Kd was 21.3 ± 1.6 nM.
